Experimental data published in patent US20110289632.

Test system: 3-ketomyristoyl-ACP (enzymatically prepared from ShACP)

ShMKS2 (methylketone synthase 2 from Solanum habrochaites f glabratum), recombinant, without the transit peptide, His-tagged, sequence (chain, as listed by the source): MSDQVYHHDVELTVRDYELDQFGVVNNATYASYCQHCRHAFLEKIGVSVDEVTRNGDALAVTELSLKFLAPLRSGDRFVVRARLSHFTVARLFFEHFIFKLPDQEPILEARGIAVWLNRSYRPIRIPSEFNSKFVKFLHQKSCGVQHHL

ShMKS2 (methylketone synthase 2 from Solanum habrochaites f glabratum), recombinant, without the transit peptide, His-tagged
amount of 2-tridecanone formed (in vitro thioesterase activity assay, acid and heat treatment, GC-MS): approximately 3-fold higher than levels found in buffer-incubated substrate solution treated with acid and heat
